Biological target: T1, human iRhom2 (inactive rhomboid protein 2, isoform 1), endogenously expressed on human cells (human, UniProt Q6PJF5 1-856)
T1 sequence: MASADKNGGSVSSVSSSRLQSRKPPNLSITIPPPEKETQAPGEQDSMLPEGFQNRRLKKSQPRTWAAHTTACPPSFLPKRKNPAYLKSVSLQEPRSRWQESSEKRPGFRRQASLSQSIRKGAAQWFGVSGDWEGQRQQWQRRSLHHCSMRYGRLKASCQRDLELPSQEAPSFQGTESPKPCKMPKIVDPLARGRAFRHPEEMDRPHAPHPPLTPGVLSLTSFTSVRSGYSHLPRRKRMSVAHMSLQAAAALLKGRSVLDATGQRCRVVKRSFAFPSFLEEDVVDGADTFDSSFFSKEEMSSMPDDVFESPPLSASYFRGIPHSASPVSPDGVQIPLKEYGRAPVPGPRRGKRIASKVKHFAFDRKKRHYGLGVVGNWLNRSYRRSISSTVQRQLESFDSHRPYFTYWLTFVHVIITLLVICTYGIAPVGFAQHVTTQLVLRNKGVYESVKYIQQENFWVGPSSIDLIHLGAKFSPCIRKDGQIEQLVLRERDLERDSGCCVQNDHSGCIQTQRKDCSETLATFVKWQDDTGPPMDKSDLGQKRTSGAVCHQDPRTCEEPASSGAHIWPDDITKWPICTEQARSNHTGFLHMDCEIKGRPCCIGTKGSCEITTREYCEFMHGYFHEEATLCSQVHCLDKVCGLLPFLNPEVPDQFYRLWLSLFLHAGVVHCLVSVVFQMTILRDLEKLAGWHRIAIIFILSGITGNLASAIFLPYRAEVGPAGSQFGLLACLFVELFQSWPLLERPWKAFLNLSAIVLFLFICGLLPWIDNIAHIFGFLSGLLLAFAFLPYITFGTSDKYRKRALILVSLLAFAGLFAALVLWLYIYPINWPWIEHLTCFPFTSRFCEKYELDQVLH
Assay: cell-based or functional assay

B1: antibody 5 (antibody, V domains shown)
VH: QVTLKESGPGILQPSQTLSLTCSFSGFSLSTFGMGVGWIRQPSGKGLEWLAHIWWDDEKYYNSALKSRLTISKATSKNQAFLKIANVDTADTATYYCARISNYGSNYWYFNVWGTGTTVTVSS
VL: QVVLTQSPALMSASPGEKVTMTCSAGSSVSCMYWYQQKPGSSPRVLIYDTSNLASGVPARFTGSGSGTSYSLTISRMEAEDAASYYCQQWNSYPLTFGAGTKLELK
notes: Mouse IgG, kappa light chain; also called clone #5; purified antibody 5
  inhibition of LPS-induced release of TNFα from THP-1 cells, 10 µg/ml, antibody purified from hybridoma: 69 % inhibition
  inhibition of LPS-induced release of TNFα from THP-1 cells, recombinant antibody: 70.5 % inhibition
  inhibition of PMA-induced release of IL-6R from THP-1 cells, 1 µg/ml: 64.1 % inhibition
  inhibition of PMA-induced release of IL-6R from U-937 cells, 1 µg/ml: 67 % inhibition
  inhibition of PMA-induced release of TNFα from U-937 cells, 1 µg/ml: 63.6 % inhibition

B2: antibody 16 (antibody, V domains shown)
VH: QVTLKESGPGILQPSQTLSLTCSFSGFSLSTFALGVGWIRQPSGRGLEWLAHIWWDDDKYYNPALKSRLTISKDTSKNHVFLKIANVDTADTATYYCARITTYYYGMDYWGQGTSVTVSS
VL: DIVLSQSPATLSVTPGDSVSLFCRASQSIGNHLHWYQQESHASPRLLIKYASQSISGIPSRFSGSGSGTDFTLSINSVETEDFGMYFCQQSYNWPLTFGAGTKLELK
notes: Mouse IgG, kappa light chain; also called clone #16; m16
  inhibition of LPS-induced release of TNFα from PBMCs of healthy donors, 1 µg/ml: 81.3 % inhibition
  inhibition of LPS-induced release of TNFα from THP-1 cells, 10 µg/ml, antibody purified from hybridoma: 65.4 % inhibition
  inhibition of LPS-induced release of TNFα from THP-1 cells, recombinant antibody: 70.7 % inhibition
  inhibition of LPS-induced release of TNFα from human macrophages of healthy donors: 85.8 % inhibition
  inhibition of PMA-induced release of HB-EGF from PBMCs of healthy donors, 1 µg/ml: 71.6 % inhibition
  inhibition of PMA-induced release of HB-EGF from THP-1 cells, 3 µg/ml: 71.9 % inhibition
  inhibition of PMA-induced release of HB-EGF from U-937 cells: 99.6 % inhibition
  inhibition of PMA-induced release of IL-6R from PBMCs of healthy donors, 1 µg/ml: 84.3 % inhibition
  inhibition of PMA-induced release of IL-6R from THP-1 cells, 1 µg/ml: 72.5 % inhibition
  inhibition of PMA-induced release of IL-6R from U-937 cells, 1 µg/ml: 77.7 % inhibition
  inhibition of PMA-induced release of IL-6R from U-937 cells, 3 µg/ml: 77.4 % inhibition
  inhibition of PMA-induced release of TGFα from PC3 cells, 1 µg/ml: 13.9 % inhibition
  inhibition of PMA-induced release of TNFα from U-937 cells, 1 µg/ml: 91.6 % inhibition
  inhibition of PMA-induced release of TNFα from U-937 cells, 3 µg/ml: 91.9 % inhibition

B3: antibody 3 (antibody, V domains shown)
VH: QVTLKESGPGILQPSQTLSLTCSFSGFSLTTFAMGIGWVRQPSGKGLEWLAHIWWDGEKYNNPVLKSRLTISKDTSKNQVFLRIANVDTPDTATYYCARISSIYYIIDNWGQGTSVTVSS
VL: DIVLTQSPATLSVTPGHSVSLSCRASQSISNNLHWYQKKSHESPRLLIKYVSQSISGIPSRFSGSGSGTDFTLSINSVETEDFGMYFCQQSYNWPLTFGAGTKLELK
notes: Mouse IgG, kappa light chain; also called clone #3; purified antibody 3
  inhibition of LPS-induced release of TNFα from THP-1 cells, 10 µg/ml, antibody purified from hybridoma: 71.2 % inhibition
  inhibition of LPS-induced release of TNFα from THP-1 cells, recombinant antibody: 59.9 % inhibition
  inhibition of PMA-induced release of IL-6R from THP-1 cells, 1 µg/ml: 46.7 % inhibition
  inhibition of PMA-induced release of IL-6R from U-937 cells, 1 µg/ml: 61.8 % inhibition
  inhibition of PMA-induced release of TNFα from U-937 cells, 1 µg/ml: 65.9 % inhibition
